According to the supplement of paper PMC10201428:
± gives the standard deviation of the averaged measurements.

B1: library; a variant is named by its letters at N, in order (parent)
chain: AATGTTGTTGATGCAACCATAAAGTGATATTTAATAATTATTTATAATCAGCAACTTAACCACAAAACAACCATATATTGATATNTCACAAAACAACCATAANTTGATATTTTTGTGAATCGAGTATTTCAGCAAAACTACTGCAGTAAGAA

How the values were obtained:
[1] = variants of: B1; test: relative integration efficiency (T-LR orientation) vs wild-type transposon end (log2 (normalized fold change)); transposon end mutated: left end; higher = more efficient transposition; conditions: with VchCAST RNA-guided transposition machinery (E. coli BL21(DE3) host, lacZ target)
Outline: (§1)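 Pools of 1549 left-end or 1849 right-end barcoded transposon variants were cloned into a pUC57 mini-transposon donor and co-transformed into E. coli BL21(DE3) with a T7-driven effector plasmid carrying a CRISPR array, tniQ-cas8-cas7-cas6 and tnsA-tnsB-tnsC. Plating used 0.1 mM IPTG at 37°C for 18 h, and input plasmids and genomic integration junctions were PCR-amplified for Illumina sequencing, with two biological output replicates and four reference barcodes. Relative integration efficiency is the log-transformed fold change of output over input barcode abundance, normalised to the reference barcodes.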

[2] = variants of: B1; test: relative integration efficiency (T-RL orientation) vs wild-type transposon end (log2 (normalized fold change)); transposon end mutated: left end; higher = more efficient transposition; conditions: with VchCAST RNA-guided transposition machinery (E. coli BL21(DE3) host, lacZ target)
Outline: as §1

Row | Variant | relative integration efficiency (log2) [1] | relative integration efficiency (log2) [2]
1 | CG T31G T32G A33C A34C | -0.805 ± 0.2 | -0.592 ± 0.32
2 | CG T12A G13A T30A T32A A77C T86G | -0.499 ± 0.21 | -0.36 ± 0.22
3 | CG T30A T84A T110A | -0.322 ± 0.51 | -0.403 ± 0.24
4 | CG T48A C49G A50T G51C | -2.64 ± 0.41 | -2.28 ± 0.62
5 | CG T105G | -0.747 ± 0.68 | -1.17 ± 0.51
6 | CG T105C | -0.552 ± 0.81 | -0.583 ± 0.2
7 | CG T105A | -1.22 ± 0.29 | -0.835 ± 0.58
8 | CG T86G | 0.0399 ± 0.26 | -0.108 ± 0.045
9 | CG T86C | 0.176 ± 0.013 | -0.261 ± 0.092
10 | CG T86A | 0.731 ± 0.2 | 0.656 ± 0.025
11 | CG T76G A77C | -0.497 ± 0.94 | -0.785 ± 0.46
12 | CG T43G A44C T45G A46C | 0.536 ± 0.48 | -0.504 ± 0.27
13 | CG T74A A75T T76A A77T | -0.829 ± 0.96 | -0.759 ± 0.32
14 | CG T41A T42A T43A A44T | 0.249 ± 0.14 | 0.195 ± 0.17
15 | CG T56G T57G | -1.54 ± 0.34 | -1.59 ± 0.66
16 | CG T41A A44G A46T A50C A53T A54C C55A T56C T57A A59T C60T A62C | -2.59 ± 1.4 | -3.65 ± 0.63
17 | CG T74G A75C | -2.15 ± 0.86 | -2.21 ± 0.94
18 | AG T31G T32G A33C T86G C87A T111G T112G T113G | -1.26 ± 0.48 | -1.07 ± 0.49
19 | CG T25A G26C A27T T28A | -2.09 ± 0.86 | -2.28 ± 0.71

Row | Variant | relative integration efficiency (log2) [1] | relative integration efficiency (log2) [2]
20 | CG T32G T86G T112G | -0.809 ± 0.9 | -0.686 ± 0.19
21 | CG T79A G80C | -1.35 ± 1.1 | -1.89 ± 0.83
22 | CG T43A A44T | 0.162 ± 0.35 | -0.0354 ± 0.012
23 | CG T42G T43G A44C T45G | 0.391 ± 0.16 | -0.108 ± 0.12
24 | CG T104A T105A G106C A107T | -1.39 ± 0.94 | -2.04 ± 0.73
25 | CG T12A G13C | 0.233 ± 0.21 | -0.107 ± 0.067
26 | CG T41A T42A A44G A46G T48G A50G G51A C52G A53T C55A T56C T57A A59C | 0.615 ± 1 | -4.14 ± 1.1
27 | CG T48G C49A A50C G51T | -3.52 ± 2.9 | -1.55 ± 0.54
28 | CG T32G A33C | 0.439 ± 0.1 | 0.352 ± 0.14
29 | CG T82A A83T | -0.417 ± 0.84 | -0.851 ± 0.49
30 | CG T57G A58C A59C C60A | -1.48 ± 0.099 | -0.817 ± 0.47
31 | CG T30A T31C T32A A77C T86G | 0.153 ± 0.44 | 0.116 ± 0.27
32 | CG T12G G13T C14A A15C | -0.59 ± 0.54 | -0.224 ± 0.3
33 | CG T78A T79A G80C A81T | -1.07 ± 0.89 | -1.38 ± 0.59
34 | CG T56A T57A | -0.409 ± 0.79 | -0.165 ± 0.21
35 | GG T84A T86A C87G | 0.0518 ± 0.56 | -0.036 ± 0.31
36 | GG T86A | 0.153 ± 0.2 | -0.397 ± 0.17
37 | CG T31G | -0.35 ± 0.1 | -0.221 ± 0.21
38 | CG T31A | 0.0948 ± 0.84 | -0.128 ± 0.14

Row | Variant | relative integration efficiency (log2) [1] | relative integration efficiency (log2) [2]
39 | CG T31C | 0.331 ± 0.47 | -0.0756 ± 0.17
40 | CG T86G C87A A88C C89A | -0.0346 ± 0.016 | 0.0789 ± 0.1
41 | CG T45A A46T A47T T48A | 0.244 ± 0.78 | 0.0806 ± 0.061
42 | CG T32G A33C A34C T35G | 0.074 ± 0.25 | -0.364 ± 0.079
43 | CG T28G T82G T108G | -3.23 ± 3.2 | -2.28 ± 0.9
44 | CG T79A G80C A81T T82A | -2.46 ± 2 | -1.87 ± 0.95
45 | AG T86G C87A A88C | 0.0813 ± 0.34 | -0.158 ± 0.041
46 | GG T86A C87G A88T | 0.143 ± 0.77 | -0.152 ± 0.19
47 | CG T28C | -0.0735 ± 0.44 | -0.273 ± 0.15
48 | CG T28A | -0.399 ± 0.64 | -0.37 ± 0.28
49 | CG T28G | -0.845 ± 0.19 | -0.536 ± 0.28
50 | CG T30G T31G T32G A33C | -1.21 ± 0.73 | -1.06 ± 0.5
51 | CG T31G T32G | -0.16 ± 0.58 | -0.225 ± 0.34
52 | CG T41A | -0.651 ± 0.73 | 0.0865 ± 0.047
53 | CG T41C | 1.29 ± 0.16 | 0.304 ± 0.26
54 | CG T41G | 0.12 ± 0.36 | -0.128 ± 0.018
55 | CG T79G G80T | -0.966 ± 0.14 | -1.24 ± 0.76
56 | CG T38A T42A T45A A47T C49A G51T C52T A54T C55T T56A T57A A59T | -2.39 ± 1.1 | -2.37 ± 0.87
57 | CG T25G G26T | -0.611 ± 0.7 | -0.737 ± 0.33
